Experimental data published in patent publication US20230272082A1 (SENSEI BIOTHERAPEUTICS, published 2023).

T1: biotinylated hVISTA-Fc (human, biotinylated (site not stated))
T1 construct: also called Human VISTA-Fc
T1 chain: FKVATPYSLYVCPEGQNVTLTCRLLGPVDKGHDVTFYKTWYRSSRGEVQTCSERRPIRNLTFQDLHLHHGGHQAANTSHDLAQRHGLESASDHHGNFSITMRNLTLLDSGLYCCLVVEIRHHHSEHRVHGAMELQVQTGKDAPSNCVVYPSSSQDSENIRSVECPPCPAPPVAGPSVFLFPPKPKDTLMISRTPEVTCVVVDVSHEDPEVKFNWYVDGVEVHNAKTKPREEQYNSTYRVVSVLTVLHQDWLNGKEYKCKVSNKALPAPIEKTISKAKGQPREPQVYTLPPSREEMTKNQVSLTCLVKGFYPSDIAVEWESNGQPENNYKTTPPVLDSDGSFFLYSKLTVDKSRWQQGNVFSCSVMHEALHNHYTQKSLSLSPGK


Legend:
human VISTA [1] = molecular target: T2, human VISTA (human, UniProt Q9H7M9 33-194, limits assumed); assay: flow cytometry on CHO-VISTA cells, pH 6.0, detection Anti-Fab 647 (legend: Fab on CHO-VISTA cells)
T2 construct: also called hVISTA

human VISTA [2] = molecular target: T2, human VISTA; assay: flow cytometry on CHO-VISTA cells, pH 7.4, detection Anti-Fab 647 (legend: Fab on CHO-VISTA cells)
biotinylated hVISTA-Fc [3] = molecular target: T1, biotinylated hVISTA-Fc; assay: competition ELISA at pH 6.0; SNS-101 dilutions pre-incubated with biotinylated hVISTA-Fc, then added to wells coated with LRIG-1 (blocked partner)
biotinylated hVISTA-Fc [4] = molecular target: T1, biotinylated hVISTA-Fc; assay: competition ELISA at pH 6.0; SNS-101 dilutions pre-incubated with biotinylated hVISTA-Fc, then added to wells coated with PSGL-1 (blocked partner)
biotinylated hVISTA-Fc [5] = molecular target: T1, biotinylated hVISTA-Fc; assay: competition ELISA at pH 6.0; SNS-101 dilutions pre-incubated with biotinylated hVISTA-Fc, then added to wells coated with VSIG-3 (blocked partner)
biotinylated hVISTA-Fc [6] = molecular target: T1, biotinylated hVISTA-Fc; assay: competition ELISA at pH 6.0; SNS-101 dilutions pre-incubated with biotinylated hVISTA-Fc, then added to wells coated with VSIG-8 (blocked partner)
biotinylated hVISTA-Fc [7] = molecular target: T1, biotinylated hVISTA-Fc; assay: competition ELISA at pH 6.0; SNS-101 dilutions pre-incubated with biotinylated hVISTA-Fc, then added to wells coated with Syndecan-2 (blocked partner)

FOB (fold over background) (human VISTA [1]) | FOB (fold over background) (human VISTA [2]) | IC50 (biotinylated hVISTA-Fc [3]) | IC50 (biotinylated hVISTA-Fc [4]) | IC50 (biotinylated hVISTA-Fc [5]) | IC50 (biotinylated hVISTA-Fc [6]) | IC50 (biotinylated hVISTA-Fc [7]) | Binder
29.4 | 34.8 |  |  |  |  |  | antibody 55873 (mab#2) (antibody, V domains shown, Fully human parental antibody; also called Anti-VISTA mAb #2) VH: EVQLVESGGGLVQPGGSLRLSCAASGFTFSSYSMNWVRQAPGKGLEWVSYISSSSSTIYYADSVKGRFTISRDNAKNSLYLQMNSLRAEDTAVYYCAREAGGVVGRVDFQHWGQGTLVTVSS VL: DIQMTQSPSSLSASVGDRVTITCQASQDISNYLNWYQQKPGKAPKLLIYDASNLETGVPSRFSGSGSGTDFTFTISSLQPEDIATYYCQQADFLPPWTFGGGTKVEIK
 |  | 6 nM | 7 nM | 6 nM | 6 nM | 6 nM | SNS-101 (antibody, human IgG1, V domains shown, Described as a fully human IgG1; also called antibody 67375) VH: EVQLVESGGGLVQPGGSLRLSCAASGFTFDDYSMNWVRQAPGKGLEWVSYISSDADTIYYADSVKGRFTISRDNAKNSLYLQMNSLRAEDTAVYYCAREAGGVLGRVDFQHWGQGTLVTVSS VL: DIQLTQSPSSLSASVGDRVTITCQASQDISNYLNWYQQKPGKAPKLLIYDASNLGTGVPSRFSGSGSGTDFTFTISSLQPEDIATYYCQQADFVPPWTFGGGTKVEIK
